The source of these data is US20220289848A1.

For assay [1], the target named is human PD-L1 on PD-L1 aAPC/CHO-K1 Cells (human) (UniProt Q9NZQ7). Kind of assay: cell-based or functional assay.
In assay [2] the target is CD47 (UniProt Q08722). Kind of assay: FACS binding, CHO-K1 cells expressing CD47; flat curve.
The target of assay [3] is PD-L1 (UniProt Q9NZQ7). Kind of assay: FACS binding, CHO-K1 cells expressing PD-L1; flat curve.
Chain of PD-L1 (Q9NZQ7 19-290): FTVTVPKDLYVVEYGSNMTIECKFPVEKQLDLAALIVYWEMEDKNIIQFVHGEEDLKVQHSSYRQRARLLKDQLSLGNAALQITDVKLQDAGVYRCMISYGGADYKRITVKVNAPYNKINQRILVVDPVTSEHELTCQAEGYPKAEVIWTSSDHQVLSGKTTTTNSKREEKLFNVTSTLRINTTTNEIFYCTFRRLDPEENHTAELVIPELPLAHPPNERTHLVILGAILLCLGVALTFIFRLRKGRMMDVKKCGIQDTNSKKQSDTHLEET

Chain of human PD-L1 on PD-L1 aAPC/CHO-K1 Cells (human) (Q9NZQ7 19-290): as above

The substance Tecentriq biosimilar (antibody) showed a PD-1/PD-L1 blockade bioassay, relative activity (reference) in assay [1] of 100%.

For Human IgG, the EC50 in assay [2] amounted to 0.00446 nM; in assay [3], 38.3 nM.
